The experiment deals with OsSEC3A_C (amino acids 521-888)-NLuc (rice (Oryza sativa)). Kind of experiment: split reporter (BiFC, NanoBiT); split firefly luciferase complementation, NLuc and CLuc fusions under the 35S promoter co-expressed in N. benthamiana leaves, read 3 d after infiltration.

Data on one substance can be found in publication PMC6018903.

CLuc-OsSNAP32 (natural protein): the fold LUC activity over the negative vector controls was 15 fold.
